Target: HuR full-length (FL-HuR, rHuR) (UniProt Q15717 1-326)
Assay: EMSA; EMSA: 20 mM Tris-HCl pH 7.8, 150 mM KCl, 2 mM MgCl2, 0.1% Triton X-100, 0.5 mM DTT, heparin 5 mg/ml, BSA 1 mg/ml, 10% glycerol, on ice 15 min; 6% native PAGE, 0

Chain of HuR full-length (FL-HuR, rHuR) (Q15717 whole entry): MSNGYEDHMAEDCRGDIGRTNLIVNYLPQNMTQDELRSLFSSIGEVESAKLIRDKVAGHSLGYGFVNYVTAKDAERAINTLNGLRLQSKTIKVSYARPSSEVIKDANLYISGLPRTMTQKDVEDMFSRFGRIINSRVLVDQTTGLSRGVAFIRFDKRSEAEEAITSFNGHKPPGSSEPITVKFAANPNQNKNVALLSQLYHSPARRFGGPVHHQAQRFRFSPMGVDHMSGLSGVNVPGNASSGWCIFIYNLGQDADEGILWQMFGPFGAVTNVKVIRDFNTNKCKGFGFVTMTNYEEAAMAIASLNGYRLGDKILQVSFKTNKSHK

Row | Binder | binding result | Kd
1 | AUUAUUUAUUAUUUAUUUAUUAUUUAUUUAUUUA (ssRNA) [TNF-alpha 3'UTR ARE RNA] | binds | –
2 | UGGAGUGUGACAAUGGUGUUUG (ssRNA) [miR-122 (5p)] | – | 50 nM

From article PMC4967961
